# Data taken from patent publication US20220298218A1 (ANTAG THERAPEUTICS, published 2022).
# *1 amine or outer side, *2 acyl side, *3 side chain or, on linkers, in order; H or OH if unused. Where no end group is shown, it is not given here. Side-chain parts run from the residue outwards. The star is where a group is joined. C18 diacid = O=C(O)CCCCCCCCCCCCCCCCC(=O)*; C16 diacid = O=C(O)CCCCCCCCCCCCCCC(=O)*; γGlu = O=C(O)[C@H](CCC(=O)[*:2])N[*:1]; AEEA = NCCOCCOCC(=O)O
# T1: human GIP receptor (human, UniProt P48546 22-466)
# T1 sequence (looked up): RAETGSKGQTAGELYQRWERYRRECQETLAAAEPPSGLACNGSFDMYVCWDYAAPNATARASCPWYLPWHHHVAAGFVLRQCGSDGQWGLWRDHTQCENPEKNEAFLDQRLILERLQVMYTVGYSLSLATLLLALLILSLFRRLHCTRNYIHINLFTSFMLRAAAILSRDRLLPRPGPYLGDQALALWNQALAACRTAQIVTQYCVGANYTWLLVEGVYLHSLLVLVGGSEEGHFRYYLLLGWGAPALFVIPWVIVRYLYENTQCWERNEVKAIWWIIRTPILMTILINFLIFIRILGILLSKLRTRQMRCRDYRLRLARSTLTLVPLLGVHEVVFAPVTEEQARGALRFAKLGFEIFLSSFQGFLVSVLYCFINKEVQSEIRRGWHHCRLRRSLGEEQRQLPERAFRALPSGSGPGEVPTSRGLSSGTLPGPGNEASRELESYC
# B1: AT428 (peptide)
# peptide: TFISDYK([AEEA-AEEA-AEEA-γGlu-C16 diacid])IAMDRIHQQDFVNWLLAQRGRRNDW-OH
# modifications: N-terminus assumed
# SMILES: CC[C@H](C)[C@H](NC(=O)[C@H](CCCCNC(=O)COCCOCCNC(=O)COCCOCCNC(=O)COCCOCCNC(=O)CC[C@H](NC(=O)CCCCCCCCCCCCCCC(=O)O)C(=O)O)NC(=O)[C@H](Cc1ccc(O)cc1)NC(=O)[C@H](CC(=O)O)NC(=O)[C@H](CO)NC(=O)[C@@H](NC(=O)[C@H](Cc1ccccc1)NC(=O)[C@@H](N)[C@@H](C)O)[C@@H](C)CC)C(=O)N[C@@H](C)C(=O)N[C@@H](CCSC)C(=O)N[C@@H](CC(=O)O)C(=O)N[C@@H](CCCNC(=N)N)C(=O)N[C@H](C(=O)N[C@@H](Cc1c[nH]cn1)C(=O)N[C@@H](CCC(N)=O)C(=O)N[C@@H](CCC(N)=O)C(=O)N[C@@H](CC(=O)O)C(=O)N[C@@H](Cc1ccccc1)C(=O)N[C@H](C(=O)N[C@@H](CC(N)=O)C(=O)N[C@@H](Cc1c[nH]c2ccccc12)C(=O)N[C@@H](CC(C)C)C(=O)N[C@@H](CC(C)C)C(=O)N[C@@H](C)C(=O)N[C@@H](CCC(N)=O)C(=O)N[C@@H](CCCNC(=N)N)C(=O)NCC(=O)N[C@@H](CCCNC(=N)N)C(=O)N[C@@H](CCCNC(=N)N)C(=O)N[C@@H](CC(N)=O)C(=O)N[C@@H](CC(=O)O)C(=O)N[C@@H](Cc1c[nH]c2ccccc12)C(=O)O)C(C)C)[C@@H](C)CC
# B2: AT420 (peptide)
# peptide: SGTFISDYSIAMDKIK([AEEA-AEEA-AEEA-γGlu-C16 diacid])QQDFVNWLLAQKGKKNDW-OH
# modifications: N-terminus assumed
# SMILES: CC[C@H](C)[C@H](NC(=O)[C@H](CO)NC(=O)[C@H](Cc1ccc(O)cc1)NC(=O)[C@H](CC(=O)O)NC(=O)[C@H](CO)NC(=O)[C@@H](NC(=O)[C@H](Cc1ccccc1)NC(=O)[C@@H](NC(=O)CNC(=O)[C@@H](N)CO)[C@@H](C)O)[C@@H](C)CC)C(=O)N[C@@H](C)C(=O)N[C@@H](CCSC)C(=O)N[C@@H](CC(=O)O)C(=O)N[C@@H](CCCCN)C(=O)N[C@H](C(=O)N[C@@H](CCCCNC(=O)COCCOCCNC(=O)COCCOCCNC(=O)COCCOCCNC(=O)CC[C@H](NC(=O)CCCCCCCCCCCCCCC(=O)O)C(=O)O)C(=O)N[C@@H](CCC(N)=O)C(=O)N[C@@H](CCC(N)=O)C(=O)N[C@@H](CC(=O)O)C(=O)N[C@@H](Cc1ccccc1)C(=O)N[C@H](C(=O)N[C@@H](CC(N)=O)C(=O)N[C@@H](Cc1c[nH]c2ccccc12)C(=O)N[C@@H](CC(C)C)C(=O)N[C@@H](CC(C)C)C(=O)N[C@@H](C)C(=O)N[C@@H](CCC(N)=O)C(=O)N[C@@H](CCCCN)C(=O)NCC(=O)N[C@@H](CCCCN)C(=O)N[C@@H](CCCCN)C(=O)N[C@@H](CC(N)=O)C(=O)N[C@@H](CC(=O)O)C(=O)N[C@@H](Cc1c[nH]c2ccccc12)C(=O)O)C(C)C)[C@@H](C)CC
# B3: AT419 (peptide)
# peptide: SGTFISDYSIAMDKIK([AEEA-AEEA-γGlu-C16 diacid])QQDFVNWLLAQKGKKNDW-OH
# modifications: N-terminus assumed
# SMILES: CC[C@H](C)[C@H](NC(=O)[C@H](CO)NC(=O)[C@H](Cc1ccc(O)cc1)NC(=O)[C@H](CC(=O)O)NC(=O)[C@H](CO)NC(=O)[C@@H](NC(=O)[C@H](Cc1ccccc1)NC(=O)[C@@H](NC(=O)CNC(=O)[C@@H](N)CO)[C@@H](C)O)[C@@H](C)CC)C(=O)N[C@@H](C)C(=O)N[C@@H](CCSC)C(=O)N[C@@H](CC(=O)O)C(=O)N[C@@H](CCCCN)C(=O)N[C@H](C(=O)N[C@@H](CCCCNC(=O)COCCOCCNC(=O)COCCOCCNC(=O)CC[C@H](NC(=O)CCCCCCCCCCCCCCC(=O)O)C(=O)O)C(=O)N[C@@H](CCC(N)=O)C(=O)N[C@@H](CCC(N)=O)C(=O)N[C@@H](CC(=O)O)C(=O)N[C@@H](Cc1ccccc1)C(=O)N[C@H](C(=O)N[C@@H](CC(N)=O)C(=O)N[C@@H](Cc1c[nH]c2ccccc12)C(=O)N[C@@H](CC(C)C)C(=O)N[C@@H](CC(C)C)C(=O)N[C@@H](C)C(=O)N[C@@H](CCC(N)=O)C(=O)N[C@@H](CCCCN)C(=O)NCC(=O)N[C@@H](CCCCN)C(=O)N[C@@H](CCCCN)C(=O)N[C@@H](CC(N)=O)C(=O)N[C@@H](CC(=O)O)C(=O)N[C@@H](Cc1c[nH]c2ccccc12)C(=O)O)C(C)C)[C@@H](C)CC
# B4: AT430 (peptide)
# peptide: TFISDYK([AEEA-AEEA-AEEA-γGlu-C18 diacid])IAMDRIHQQDFVNWLLAQRGRRNDW-OH
# modifications: N-terminus assumed
# SMILES: CC[C@H](C)[C@H](NC(=O)[C@H](CCCCNC(=O)COCCOCCNC(=O)COCCOCCNC(=O)COCCOCCNC(=O)CC[C@H](NC(=O)CCCCCCCCCCCCCCCCC(=O)O)C(=O)O)NC(=O)[C@H](Cc1ccc(O)cc1)NC(=O)[C@H](CC(=O)O)NC(=O)[C@H](CO)NC(=O)[C@@H](NC(=O)[C@H](Cc1ccccc1)NC(=O)[C@@H](N)[C@@H](C)O)[C@@H](C)CC)C(=O)N[C@@H](C)C(=O)N[C@@H](CCSC)C(=O)N[C@@H](CC(=O)O)C(=O)N[C@@H](CCCNC(=N)N)C(=O)N[C@H](C(=O)N[C@@H](Cc1c[nH]cn1)C(=O)N[C@@H](CCC(N)=O)C(=O)N[C@@H](CCC(N)=O)C(=O)N[C@@H](CC(=O)O)C(=O)N[C@@H](Cc1ccccc1)C(=O)N[C@H](C(=O)N[C@@H](CC(N)=O)C(=O)N[C@@H](Cc1c[nH]c2ccccc12)C(=O)N[C@@H](CC(C)C)C(=O)N[C@@H](CC(C)C)C(=O)N[C@@H](C)C(=O)N[C@@H](CCC(N)=O)C(=O)N[C@@H](CCCNC(=N)N)C(=O)NCC(=O)N[C@@H](CCCNC(=N)N)C(=O)N[C@@H](CCCNC(=N)N)C(=O)N[C@@H](CC(N)=O)C(=O)N[C@@H](CC(=O)O)C(=O)N[C@@H](Cc1c[nH]c2ccccc12)C(=O)O)C(C)C)[C@@H](C)CC
# B5: AT367 (peptide)
# peptide: TFISDYKIAMDKIHQQDFVNWLLAQKGKKNDWKHN
# HELM: PEPTIDE1{T.F.I.S.D.Y.K.I.A.M.D.K.I.H.Q.Q.D.F.V.N.W.L.L.A.Q.K.G.K.K.N.D.W.K.H.N}|PEPTIDE2{[O=C(O)CCCCCCCCCCCCCCC(=O)[*:2]].[gGlu]}$PEPTIDE1,PEPTIDE2,7:R3-2:R2$$$V2.0; N-terminus assumed
# SMILES: CC[C@H](C)[C@H](NC(=O)[C@H](CCCCNC(=O)CC[C@H](NC(=O)CCCCCCCCCCCCCCC(=O)O)C(=O)O)NC(=O)[C@H](Cc1ccc(O)cc1)NC(=O)[C@H](CC(=O)O)NC(=O)[C@H](CO)NC(=O)[C@@H](NC(=O)[C@H](Cc1ccccc1)NC(=O)[C@@H](N)[C@@H](C)O)[C@@H](C)CC)C(=O)N[C@@H](C)C(=O)N[C@@H](CCSC)C(=O)N[C@@H](CC(=O)O)C(=O)N[C@@H](CCCCN)C(=O)N[C@H](C(=O)N[C@@H](Cc1c[nH]cn1)C(=O)N[C@@H](CCC(N)=O)C(=O)N[C@@H](CCC(N)=O)C(=O)N[C@@H](CC(=O)O)C(=O)N[C@@H](Cc1ccccc1)C(=O)N[C@H](C(=O)N[C@@H](CC(N)=O)C(=O)N[C@@H](Cc1c[nH]c2ccccc12)C(=O)N[C@@H](CC(C)C)C(=O)N[C@@H](CC(C)C)C(=O)N[C@@H](C)C(=O)N[C@@H](CCC(N)=O)C(=O)N[C@@H](CCCCN)C(=O)NCC(=O)N[C@@H](CCCCN)C(=O)N[C@@H](CCCCN)C(=O)N[C@@H](CC(N)=O)C(=O)N[C@@H](CC(=O)O)C(=O)N[C@@H](Cc1c[nH]c2ccccc12)C(=O)N[C@@H](CCCCN)C(=O)N[C@@H](Cc1c[nH]cn1)C(=O)N[C@@H](CC(N)=O)C(=O)O)C(C)C)[C@@H](C)CC
# B6: AT368 (peptide)
# peptide: TFISDYKIAMDKIHQQDFVNWLLAQKGKKNDWKHNITQ
# HELM: PEPTIDE1{T.F.I.S.D.Y.K.I.A.M.D.K.I.H.Q.Q.D.F.V.N.W.L.L.A.Q.K.G.K.K.N.D.W.K.H.N.I.T.Q}|PEPTIDE2{[O=C(O)CCCCCCCCCCCCCCC(=O)[*:2]].[gGlu]}$PEPTIDE1,PEPTIDE2,7:R3-2:R2$$$V2.0; N-terminus assumed
# SMILES: CC[C@H](C)[C@H](NC(=O)[C@H](CCCCNC(=O)CC[C@H](NC(=O)CCCCCCCCCCCCCCC(=O)O)C(=O)O)NC(=O)[C@H](Cc1ccc(O)cc1)NC(=O)[C@H](CC(=O)O)NC(=O)[C@H](CO)NC(=O)[C@@H](NC(=O)[C@H](Cc1ccccc1)NC(=O)[C@@H](N)[C@@H](C)O)[C@@H](C)CC)C(=O)N[C@@H](C)C(=O)N[C@@H](CCSC)C(=O)N[C@@H](CC(=O)O)C(=O)N[C@@H](CCCCN)C(=O)N[C@H](C(=O)N[C@@H](Cc1c[nH]cn1)C(=O)N[C@@H](CCC(N)=O)C(=O)N[C@@H](CCC(N)=O)C(=O)N[C@@H](CC(=O)O)C(=O)N[C@@H](Cc1ccccc1)C(=O)N[C@H](C(=O)N[C@@H](CC(N)=O)C(=O)N[C@@H](Cc1c[nH]c2ccccc12)C(=O)N[C@@H](CC(C)C)C(=O)N[C@@H](CC(C)C)C(=O)N[C@@H](C)C(=O)N[C@@H](CCC(N)=O)C(=O)N[C@@H](CCCCN)C(=O)NCC(=O)N[C@@H](CCCCN)C(=O)N[C@@H](CCCCN)C(=O)N[C@@H](CC(N)=O)C(=O)N[C@@H](CC(=O)O)C(=O)N[C@@H](Cc1c[nH]c2ccccc12)C(=O)N[C@@H](CCCCN)C(=O)N[C@@H](Cc1c[nH]cn1)C(=O)N[C@@H](CC(N)=O)C(=O)N[C@H](C(=O)N[C@H](C(=O)N[C@@H](CCC(N)=O)C(=O)O)[C@@H](C)O)[C@@H](C)CC)C(C)C)[C@@H](C)CC
# Biological target: T1, human GIP receptor
# Experiment: cell-based or functional assay
Binder,cAMP antagonism [nM],cAMP antagonism % inhib [%],cAMP antagonism log [log M],cAMP agonism Emax
B1,296,90,-6.5,
B2,237,100,-6.6,
B3,215,78,-6.7,4.9
B4,153,100,-6.8,
B5,6,100,-8.3,
B6,9,100,-8.1,
